Columns and labels:
Experiment in all cases: cell-based or functional assay
[1] = target: HIV-1 Env of pseudovirus CNE52 (HIV-1)
[2] = target: HIV-1 Env of pseudovirus P1981_C5_3 (HIV-1)
[3] = target: HIV-1 Env of pseudovirus 1056_10_TA11_1826 (HIV-1)
[4] = target: HIV-1 Env of pseudovirus 3103.v3.c10 (HIV-1)
[5] = target: HIV-1 Env of pseudovirus Ce704809221_1B3 (HIV-1)
[6] = target: HIV-1 Env of pseudovirus C3347.c11 (HIV-1)
[7] = target: HIV-1 Env of pseudovirus 246F C1G (HIV-1)
[8] = target: HIV-1 Env of pseudovirus 231966.c02 (HIV-1)
[9] = target: HIV-1 Env of pseudovirus BJOX010000.06.2 (HIV-1)
[10] = target: HIV-1 Env of pseudovirus 211-9 (HIV-1)
[11] = target: HIV-1 Env of pseudovirus CNE17 (HIV-1)
[12] = target: HIV-1 Env of pseudovirus 249M B10 (HIV-1)
[13] = target: HIV-1 Env of pseudovirus SC422661.8 (HIV-1)
[14] = target: HIV-1 Env of pseudovirus C4118.c09 (HIV-1)
[15] = target: HIV-1 Env of pseudovirus X1254_c3 (HIV-1)
[16] = target: HIV-1 Env of pseudovirus ZM197M.PB7 (HIV-1)
[17] = target: HIV-1 Env of pseudovirus ZM233M.PB6 (HIV-1)
[18] = target: HIV-1 Env of pseudovirus CNE19 (HIV-1)
[19] = target: HIV-1 Env of pseudovirus C2101.c01 (HIV-1)
[20] = target: HIV-1 Env of pseudovirus CNE5 (HIV-1)
[21] = target: HIV-1 Env of pseudovirus 191084 B7-19 (HIV-1)
[22] = target: HIV-1 Env of pseudovirus R3265.c06 (HIV-1)
[23] = target: HIV-1 Env of pseudovirus CAAN5342.A2 (HIV-1)
[24] = target: HIV-1 Env of pseudovirus 928-28 (HIV-1)
[25] = target: HIV-1 Env of pseudovirus Ce1086_B2 (HIV-1)
[26] = target: MuLV envelope (negative control pseudovirus)
[27] = target: HIV-1 Env of pseudovirus P0402_c2_11 (HIV-1)
[28] = target: HIV-1 Env of pseudovirus ZM53M.PB12 (HIV-1)
[29] = target: HIV-1 Env of pseudovirus 231965.c01 (HIV-1)
[30] = target: HIV-1 Env of pseudovirus 89-F1_2_25 (HIV-1)
[31] = target: HIV-1 Env of pseudovirus Ce1176_A3 (HIV-1)
[32] = target: HIV-1 Env of pseudovirus CNE53 (HIV-1)
[33] = target: HIV-1 Env of pseudovirus PVO.4 (HIV-1)

B1: N49P22 (antibody, V domains shown)
V domain 1: HIQLLQSGPQVKKSGDTVRISCETSGYNFVDSRIHWVRQTPEKRLRWMGWINPLQGGVNYAPEFQGRIRMTRDTFIDTVYVDLSGLTPADTAYYYCARGIDGKSYPFHFWGHGTRVTVFS
V domain 2: RFALTQPASVSGSPGQTITITCAGGSVSWFHFPPGKTPRLIIYESSKRPSGVSPRFSGSQSGSTASLIISGLQSDDEGTYFCSILEFFGRGTLVTVLS
- IC50 [1]: 1.7 µg/mL
- IC80 [1]: 10 µg/mL
- MPI [1]: 91
- IC50 [2]: > 50 µg/mL
- IC80 [2]: > 50 µg/mL
- MPI [2]: 48
- IC50 [3]: 2.99 µg/mL
- IC80 [3]: > 50 µg/mL
- MPI [3]: 69
- IC50 [4]: > 50 µg/mL
- IC80 [4]: > 50 µg/mL
- MPI [4]: 16
- IC50 [5]: 15.8 µg/mL
- IC80 [5]: > 50 µg/mL
- MPI [5]: 60
- IC50 [6]: 1.18 µg/mL
- IC80 [6]: 12.3 µg/mL
- MPI [6]: 89
- IC50 [7]: > 50 µg/mL
- IC80 [7]: > 50 µg/mL
- MPI [7]: 10
- IC50 [8]: 3.35 µg/mL
- IC80 [8]: > 50 µg/mL
- MPI [8]: 69
- IC50 [9]: > 50 µg/mL
- IC80 [9]: > 50 µg/mL
- MPI [9]: 0
- IC50 [10]: > 50 µg/mL
- IC80 [10]: > 50 µg/mL
- MPI [10]: 18
- IC50 [11]: 46.3 µg/mL
- IC80 [11]: > 50 µg/mL
- MPI [11]: 53
- IC50 [12]: > 50 µg/mL
- IC80 [12]: > 50 µg/mL
- MPI [12]: 4
- IC50 [13]: 0.12 µg/mL
- IC80 [13]: 0.544 µg/mL
- MPI [13]: 100
- IC50 [14]: 1.82 µg/mL
- IC80 [14]: 26.6 µg/mL
- MPI [14]: 93
- IC50 [15]: 3.06 µg/mL
- IC80 [15]: 29.8 µg/mL
- MPI [15]: 84
- IC50 [16]: 2.58 µg/mL
- IC80 [16]: 25.1 µg/mL
- MPI [16]: 84
- IC50 [17]: > 50 µg/mL
- IC80 [17]: > 50 µg/mL
- MPI [17]: 2
- IC50 [18]: 0.873 µg/mL
- IC80 [18]: 8.19 µg/mL
- MPI [18]: 92
- IC50 [19]: 0.171 µg/mL
- IC80 [19]: 1.06 µg/mL
- MPI [19]: 99
- IC50 [20]: 0.281 µg/mL
- IC80 [20]: 1.55 µg/mL
- MPI [20]: 96
- IC50 [21]: 0.343 µg/mL
- IC80 [21]: 1.64 µg/mL
- MPI [21]: 98
- IC50 [22]: 3.58 µg/mL
- IC80 [22]: > 50 µg/mL
- MPI [22]: 67
- IC50 [23]: 0.425 µg/mL
- IC80 [23]: 1.88 µg/mL
- MPI [23]: 99
- IC50 [24]: > 50 µg/mL
- IC80 [24]: > 50 µg/mL
- MPI [24]: 32
- IC50 [25]: > 50 µg/mL
- IC80 [25]: > 50 µg/mL
- MPI [25]: 0
- IC50 [26]: > 50 µg/mL
- IC80 [26]: > 50 µg/mL
- MPI [26]: 8
- IC50 [27]: 5.93 µg/mL
- IC80 [27]: > 50 µg/mL
- MPI [27]: 73
- IC50 [28]: 1.2 µg/mL
- IC80 [28]: 11.8 µg/mL
- MPI [28]: 91
- IC50 [29]: 2.04 µg/mL
- IC80 [29]: 35.2 µg/mL
- MPI [29]: 83
- IC50 [30]: > 50 µg/mL
- IC80 [30]: > 50 µg/mL
- MPI [30]: 10
- IC50 [31]: > 50 µg/mL
- IC80 [31]: > 50 µg/mL
- MPI [31]: 23
- IC50 [32]: 0.779 µg/mL
- IC80 [32]: 5.11 µg/mL
- MPI [32]: 93
- IC50 [33]: 0.433 µg/mL
- IC80 [33]: 1.49 µg/mL
- MPI [33]: 100

Reference: patent US20230002480A1
